Data reported in patent publication US20210380994A1, “LACTOCOCCUS LACTIS EXPRESSION SYSTEM FOR DELIVERING PROTEINS EFFICACIOUS FOR THE TREATMENT OF EPITHELIAL BARRIER FUNCTION DISORDERS” (Second Genome, Inc., priority 2018, published 2021).

B1: SG-11: Roseburia hominis protein comprising SEQ ID NO:3; tested as SEQ ID NO:5, SEQ ID NO:7 or FLAG-tagged SEQ ID NO:9 (protein, listed as Rosburia hominis)
chain: LEGEESVVYVGKKGVIASLDVETLDQSYYDETELKSYVDAEVEDYTAEHGKNAVKVESLKVEDGVAKLKMKYKTPEDYTAFNGIELYQGKVVASLAAGYVYDGEFARVEEGKVVGAATKQDIYSEDDLKVAIIRANTDVKVDGEICYVSCQNVKLTGKDSVSIRDGYYLETGSVTASVDVTGQESVGTEQLSGTEQMEMTGEPVNADDTEQTEAAAGDGSFETDVYTFIVYK
B2: SG-11V5: variant of SEQ ID NO:7 with N53S, N83S, C147V, C151S (protein)
chain: MLEGEESVVYVGKKGVIASLDVETLDQSYYDETELKSYVDAEVEDYTAEHGKSAVKVESLKVEDGVAKLKMKYKTPEDYTAFSGIELYQGKVVASLAAGYVYDGEFARVEEGKVVGAATKQDIYSEDDLKVAIIRANTDVKVDGEIVYVSSQNVKLTGKDSVSIRDGYYLETGSVTASVDVTGQESVGTEQLSGTEQMEMTGEPVNADDTEQTEAAAGDGSFETDVYTFIVYK
modifications: Artificial variant of SG-11 (N53S, N83S, C147V, C151S)

Tests used:
[1] = system: human colonic epithelial cells (HCT8 enterocytes and HT29-MTX goblet cells); experiment: trans-epithelial electrical resistance (TEER) assay, epithelial/monocyte co-culture disrupted by heat killed E. coli; assay type: cell-based
Description: Assays were performed as described below in trans-well plates where co-cultures of multiple cell types were performed utilizing a permeable membrane to separate cells. In the apical (top) chamber, human colonic epithelial cells, consisting of a mixture of enterocytes and goblet cells, were cultured until cells obtained tight junction formation and barrier function capacity as assessed by measurement of trans-epithelial electrical resistance (TEER). In the basolateral chamber, monocytes were cultured separately. Epithelial […] were primed with inflammatory cytokines. The assays measured the effect of a therapeutic protein, e.g., SG-11, on epithelial barrier function, muc2 gene expression, and production of cytokines.
Cell culture. The HCT8 human enterocyte cell line (ATCC Cat. No. CCL-244) was maintained in RPMI-1640 medium supplemented with 10% fetal bovine seam, 100 IU/ml penicillin, 100 ? g/ml streptomycin, 10 ? g/ml gentamicin and 0.25 μg/ml amphotericin (cRPMI). HT29-MTX human goblet cells (Sigma-Aldrich (St. Louis, Mo.; Cat. No. 12040401) were maintained in DMEM medium with 10% fetal bovine serum, 100 IU/ml penicillin, 100 ? g/ml streptomycin, 10 ? g/ml gentamicin and 0.25 μg/ml amphotericin (cDMEM). Epithelial cells were passaged by trypsinization and were used between 5 and 15 passages following thawing from liquid nitrogen stocks. U937 monocytes (ATCC Cat. No. 700928) were maintained in cRPMI medium as a suspension culture, and split by dilution as needed to maintain cells between 5×10^5 and 2×10^6 cell/ml. U937 cells were used up to passage 18 following thawing from liquid nitrogen stocks.
Epithelial cell culture. A mixture of HCT8 enterocytes and HT29-MTX goblet cells were plated at a 9:1 ratio, respectively, in the apical chamber of the transwell plate as described previously (Berget et al., 2017, Int J Mol Sci, 18:1573; Beduneau et al., 2014. Eur J Pharm Biopharm, 87:290-298). A total of 10^5 cells were plated in each well (9×10^4 HCT cells and 1×10^4 HT29-MTX cells per well). Epithelial cells were trypsinized from culture flasks and viable cells determined by trypan blue counting. The correct volumes of each cell type were combined in a single tube and centrifuged. The cell pellet was resuspended in cRPMI and added to the apical chamber of the transwell plate. Celle were cultured for 8 to 10 days at 37° C.+5% CO2, and media was changed every 2 days.
Monocyte culture. On day 6 of epithelial cell culture 2×10^5 cells/well U937 monocytes were plated into a 96 well receiver plate. Cells were cultured at 37° C.+5% CO2 and media was changed every 24 hours for four days.
Co-culture assay. Following 8-10 days of culture, 10 ng/ml IFN-© was added to the basolateral chamber of the transwell plate containing enterocytes, for 24 hours at 37° C.+5% CO2. After 24 hours, fresh cRPMI was added to the epithelial cell culture plate. TEER readings were measured after the IFN-© treatment and were used as the pre-treatment TEER value. SG-11 was then added to the apical chamber of the transwell plate at a final concentration of 1 ? g/ml (40 nM). The myosin light chain kinase (MLCK) inhibitor peptide 18 (BioTechne, Minneapolis, Minn.) was used at 50 nM as a positive control to prevent inflammation induced barrier disruption (Zolotarevsky et al., 2002, Gastroenterology. 123:163-172). […]

[2] = system: Syrian Golden Hamsters, mucositis of the left buccal cheek pouch; experiment: radiation-induced oral mucositis model; assay type: in vivo, hamster; conditions: for % Days ≥3 (percent of animal days with a mucositis score ≥3): Vehicle 59.52%; for Days <3 (animal days with a mucositis score <3) / Days ≥3 (animal days with a mucositis score ≥3): through Day 28; for days of improvement in mucositis scores compared to the Vehicle control group: topical b.i.d.
Description: Forty-eight (48) male Syrian Golden Hamsters were used in the study.
Mucositis was induced by administering a single dose of radiation (40 Gy) directed to the left buccal cheek pouch at a rate of 2-2.5 Gy/min administered on Day 0. Radiation was generated with a 160 kilovolt potential (18.75-ma) source at a fecal distance of 10 cm, hardened with a 3.0 mm Al filtration system. Prior to irradiation, animals were anesthetized with an intraperitoneal injection of ketamine (160 mg/kg) and xylazine (8 mg/kg). The left buccal pouch was everted, fixed and isolated using a lead shield. Mucositis was evaluated clinically starting on Day 6 and continuing on alternate days until Day 28. The acute model has little systemic toxicity, resulting in few hamster deaths, thus permitting the use of smaller groups (n=7-8) for initial efficacy studies. It has abo been used to study specific mechanistic elements in the pathogenesis of mucositis.
The animals were divided into 6 treatment groups in which they were administered: Test agents (SG-11 or SG-11V5), a positive control (proprietary to Biomodels, LLC, Watertown, Mass.) or vehicle only were given by topical application to the left cheek pouch as detailed in Table 15 below.
On Day 0, morning dosing was performed at least 1 hour prior to irradiation and at least 1 hour post-irradiation (for PM dose). On Day 28, animals were euthanized and the left cheek pouch rom animals in Groups 1, and Groups 3-6 were excised, placed in a cryovial, snap frozen, and stored at −80° C. until shipment.
Starting on Day 6 and continuing every second day thereafter (Days 8, 10, 12, 14, 16, 18, 20, 22, 24, 26, 28) each animal was photographed and evaluated for mucositis scoring. For the evaluation of mucositis, the animals were anesthetized with an inhalation anesthetic and the left pouch everted. Mucositis was scored visually by comparison to a validated photographic scale (FIG. 37A), ranging from 0 for normal, to 5 for severe ulceration (clinical scoring). In descriptive terms, this scale is defined in Table 16.
A score of 1-2 is considered to represent a mild stage of the disease, whereas a score of […] is considered to indicate moderate to severe ulcerative mucositis. At the conclusion of the experiment, the photographs were randomly numbered and scored by two independent, trained observers who graded the images in blinded fashion using the above-described scale (blinded scoring). Hamsters reaching a mucositis severity score of 4 or higher received buprenorphine (0.5 mg/kg) SC twice a day for 48 hours or until score dropped below 4.
Statistical significance of observed differences was calculated using chi-squared analysis. The significance of differences observed between the control and treatment groups was evaluated by comparing the days with mucositis scores ≥3 and <3 between groups using chi-square analysis. The results of this analysis are shown in Table 17 far the entire study duration (through Day 28). Over the course of the study (Table 17), the percentage of animal days with a score of ≥3 in the Vehicle Group was 59.52%.

[3] = Example 12, 1 μg/ml (40 nM), 6 hours pre-incubation, SG-11 = SEQ ID NO:9, HK E. coli alone 78.6%, FIG. 17
[4] = 0.75 mg/ml, 0.2 ml topical b.i.d., SG-11 Day 16, SG-11V5 Days 16 and 18, Vehicle 3.29

Row | Molecule | TEER following disruption by HK E. coli [1, 3] [%] | TEER following disruption by HK E. coli ([1]; Example 15, 1 μg/ml, 6 hours pre-incubation, SG-11 = SEQ ID NO:9, HK E. coli alone 78.6%, FIG. 28) [%] | TEER following disruption by HK E. coli ([1]; SG-11 1 μg/ml added 6 hours prior to HK E. coli, HK E. coli alone 53.5%, FIG. 1B) [%] | TEER following disruption by HK E. coli ([1]; SG-11 (SEQ ID NO:5 or 9) 1 μg/ml (40 nM) added 30 minutes prior to HK E. coli, HK E. coli alone 55.8%, FIG. 1A) [%] | % Days ≥3 (percent of animal days with a mucositis score ≥3) ([2]; 0.75 mg/mL) [%] | Days <3 (animal days with a mucositis score <3) ([2]; 0.75 mg/mL) | Days ≥3 (animal days with a mucositis score ≥3) ([2]; 0.75 mg/mL) | peak mean mucositis score (scale 0-5) [2, 4] | days of improvement in mucositis scores compared to the Vehicle control group [2] | Days <3 (animal days with a mucositis score <3) ([2]; 0.075 mg/mL) | Days ≥3 (animal days with a mucositis score ≥3) ([2]; 0.075 mg/mL) | peak mean mucositis score (scale 0-5) ([2]; 0.075 mg/ml topical b.i.d., Days 16 and 18) | % Days ≥3 (percent of animal days with a mucositis score ≥3) ([2]; 0.24 mg/mL) [%] | Days <3 (animal days with a mucositis score <3) ([2]; 0.24 mg/mL) | Days ≥3 (animal days with a mucositis score ≥3) ([2]; 0.24 mg/mL) | peak mean mucositis score (scale 0-5) ([2]; 0.24 mg/ml topical b.i.d., Days 16 and 18)
1 | B1 | 89.5 | 89.5 | 60.6 | 62 | 50.00 | 96 | 96 | 3.25 | one day of improvement | – | – | – | – | – | – | –
2 | B2 | 89.1 | – | – | – | – | 120 | 72 | 2.63 | multiple days | 106 | 86 | 3.00 | 53.65 | 89 | 103 | 3.13
